Biological target: T1, N-Succinyl-Ala-Ala-Pro-Phe-p-nitroanilide
T1 chain: AAPF

B1: soluble keratinase (Bacillus licheniformis PWD-1 keratinase) (protein)
chain: AQTVPYGIPLIKADKVQAQGFKGANVKVAVLDTGIQASHPDLNVVGGASFVAGEAYNTDGNGHGTHVAGTVAALDNTTGVLGVAPSVSLYAVKVLNSSGSGSYSGIVSGIEWATTNGMDVINMSLGGASGSTAMKQAVDNAYARGVVVVAAAGNSGSSGNTNTIGYPAKYDSVIAVGAVDSNSNRASFSSVGAELEVMAPGAGVYSTYPTNTYATLNGTSMVSPHVAGAAALILSKHPNLSASQVRNRLSSTATYLGSSFYYGKGLINVEAAAQ
Question: For B1, which Km is on record?
Answer: Its Km is 220 µM.

— US20030108991
